Test results: the supplement of paper PMC11246515
± gives the standard deviation of the averaged measurements.

Test: total protein half-life in vivo (active degradation + dilution); higher = more stable protein
[1] = E. coli NCM3722 delta-clpP, growth: N-lim chemostat, doubling time 6 h
[2] = E. coli NCM3722 delta-hslV, growth: N-lim chemostat, doubling time 6 h
[3] = E. coli NCM3722 delta-lon, growth: N-lim chemostat, doubling time 6 h
[4] = E. coli NCM3722 delta-smpB, growth: N-lim chemostat, doubling time 6 h
[5] = wild type E. coli NCM3722, growth: C-lim chemostat, doubling time 3 h
[6] = wild type E. coli NCM3722, growth: C-lim chemostat, doubling time 6 h
[7] = wild type E. coli NCM3722, growth: C-lim chemostat, doubling time 12 h
[8] = wild type E. coli NCM3722, growth: N-lim chemostat, doubling time 6 h
[9] = wild type E. coli NCM3722, growth: N-lim chemostat, doubling time 12 h
[10] = wild type E. coli NCM3722, growth: P-lim chemostat, doubling time 6 h
[11] = wild type E. coli NCM3722, growth: P-lim chemostat, doubling time 12 h
[12] = E. coli NCM3722 delta-clpP delta-lon delta-hslV, growth: N-lim chemostat, doubling time 6 h

Sequence	total protein half-life in vivo [1]	total protein half-life in vivo [2]	total protein half-life in vivo [3]	total protein half-life in vivo [4]	total protein half-life in vivo [5]	total protein half-life in vivo [6]	total protein half-life in vivo [7]	total protein half-life in vivo [8]	total protein half-life in vivo [9]	total protein half-life in vivo [10]	total protein half-life in vivo [11]	total protein half-life in vivo [12]
MSSVDILVPDLPESVADATVATWHKKPGDAVVRDEVLVEIETDKVVLEVPASADGILDAVLEDEGTTVTSRQILGRLREGNSAGKETSAKSEEKASTPAQRQQASLEEQNNDALSPAIRRLLAEHNLDASAIKGTGVGGRLTREDVEKHLAKAPAKESAPAAAAPAAQPALAARSEKRVPMTRLRKRVAERLLEAKNSTAMLTTFNEVNMKPIMDLRKQYGEAFEKRHGIRLGFMSFYVKAVVEALKRYPEVNASIDGDDVVYHNYFDVSMAVSTPRGLVTPVLRDVDTLGMADIEKKIKELAVKGRDGKLTVEDLTGGNFTITNGGVFGSLMSTPIINPPQSAILGMHAIKDRPMAVNGQVEILPMMYLALSYDHRLIDGRESVGFLVTIKELLEDPTRLLLDV [P0AFG6]	6.24 ± 0.17 h	5.462 ± 0.018 h	5.45 ± 0.14 h	4.93 ± 0.068 h	2.97 ± 0.23 h	5.7 ± 0.27 h	11.3 ± 0.7 h	5.17 ± 0.35 h	11 ± 2.5 h	5.72 ± 0.087 h	12 ± 1.1 h	–
MRYLNTKNIIAAGVLLSCMSSIAWGAIIPDRTRIIMNESDKGEALKLTNQSKNLPYLAQTWIEDTKGNKSRDFIVTVPPMVRLNPSEQIQIRMITQEKIAQLPKDRETLFYFNVREIPPKTDKKNVMQVTMQHALKLFWRPKAIELEDDGVMTYEKVEIIRRNDGSIRFNNKMPYHVTLGYIGTNGVTMLPQTQSLMVTPFSYANTQFKNVPSTFQVGYINDFGGLSFYEINCPVVNNICNISVANRDQ	–	–	–	5.38 h	–	–	–	5.39 h	11.3 h	5.6 h	14.3 h	–
MSSKLVLVLNCGSSSLKFAIIDAVNGEEYLSGLAECFHLPEARIKWKMDGNKQEAALGAGAAHSEALNFIVNTILAQKPELSAQLTAIGHRIVHGGEKYTSSVVIDESVIQGIKDAASFAPLHNPAHLIGIEEALKSFPQLKDKNVAVFDTAFHQTMPEESYLYALPYNLYKEHGIRRYGAHGTSHFYVTQEAAKMLNKPVEELNIITCHLGNGGSVSAIRNGKCVDTSMGLTPLEGLVMGTRSGDIDPAIIFHLHDTLGMSVDAINKLLTKESGLLGLTEVTSDCRYVEDNYATKEDAKRAMDVYCHRLAKYIGAYTALMDGRLDAVVFTGGIGENAAMVRELSLGKLGVLGFEVDHERNLAARFGKSGFINKEGTRPAVVIPTNEELVIAQDASRLTA [P0A6A3]	6.03 ± 2.6 h	4.41 ± 0.054 h	4.89 ± 0.78 h	4.28 ± 0.21 h	3.25 ± 0.17 h	6.35 ± 0.1 h	12.1 ± 0.56 h	4.58 ± 0.21 h	8.13 ± 0.2 h	5.88 ± 0.24 h	13.1 ± 1.2 h	4.23 ± 0.13 h
MPGRFELKPTLEKVWHAPDNFRFMDPLPPMHRRGIIIAAIVLVVGFLLPSDDTPNAPVVTREAQLDIQSQSQPPTEEQLRAQLVTPQNDPDQVAPVAPEPIQEGQPEEQPQTTQTQPFQPDSGIDNQWRSYRVEPGKTMAQLFRDHGLPATDVYAMAQVEGAGKPLSNLQNGQMVKIRQNASGVVTGLTIDTGNNQQVLFTRQPDGSFIRAR	6.35 ± 0.2 h	5.57 ± 0.45 h	6.65 ± 0.27 h	6.12 ± 0.68 h	–	5 ± 0.64 h	9.18 ± 0.36 h	5.79 ± 1.1 h	11.4 ± 0.3 h	–	8.86 ± 0.21 h	5.6 ± 0.12 h
MIDPKKIEQIARQVHESMPKGIREFGEDVEKKIRQTLQAQLTRLDLVSREEFDVQTQVLLRTREKLALLEQRISELENRSTEIKKQPDPETLPPTL	6.97 ± 0.85 h	6.5 ± 1.2 h	5.8 ± 0.65 h	5.79 ± 0.91 h	3.5 ± 0.19 h	5.53 ± 0.24 h	–	4.27 ± 0.63 h	11.5 ± 5.3 h	4.66 ± 1.2 h	10.8 ± 0.66 h	–
MNPQLLRVTNRIIERSRETRSAYLARIEQAKTSTVHRSQLACGNLAHGFAACQPEDKASLKSMLRNNIAIITSYNDMLSAHQPYEHYPEIIRKALHEANAVGQVAGGVPAMCDGVTQGQDGMELSLLSREVIAMSAAVGLSHNMFDGALFLGVCDKIVPGLTMAALSFGHLPAVFVPSGPMASGLPNKEKVRIRQLYAEGKVDRMALLESEAASYHAPGTCTFYGTANTNQMVVEFMGMQLPGSSFVHPDSPLRDALTAAAARQVTRMTGNGNEWMPIGKMIDEKVVVNGIVALLATGGSTNHTMHLVAMARAAGIQINWDDFSDLSDVVPLMARLYPNGPADINHFQAAGGVPVLVRELLKAGLLHEDVNTVAGFGLSRYTLEPWLNNGELDWREGAEKSLDSNVIASFEQPFSHHGGTKVLSGNLGRAVMKTSAVPVENQVIEAPAVVFESQHDVMPAFEAGLLDRDCVVVVRHQGPKANGMPELHKLMPPLGVLLDRCFKIALVTDGRLSGASGKVPSAIHVTPEAYDGGLLAKVRDGDIIRVNGQTGELTLLVDEAELAAREPHIPDLSASRVGTGRELFSALREKLSGAEQGATCITF [P0ADF6]	3.24 h	3.51 ± 0.99 h	3.46 h	2.97 ± 0.12 h	3.07 ± 0.33 h	–	8.61 h	2.98 ± 0.2 h	4.531 ± 0.012 h	5.33 ± 0.3 h	9.86 ± 0.35 h	3.58 ± 0.62 h
MSHKPAHLLLVDDDPGLLKLLGLRLTSEGYSVVTAESGAEGLRVLNREKVDLVISDLRMDEMDGMQLFAEIQKVQPGMPVIILTAHGSIPDAVAATQQGVFSFLTKPVDKDALYQAIDDALEQSAPATDERWREAIVTRSPLMLRLLEQARLVAQSDVSVLINGQSGTGKEIFAQAIHNASPRNSKPFIAINCGALPEQLLESELFGHARGAFTGAVSNREGLFQAAEGGTLFLDEIGDMPAPLQVKLLRVLQERKVRPLGSNRDIDINVRIISATHRDLPKAMARGEFREDLYYRLNVVSLKIPALAERTEDIPLLANHLLRQAAERHKPFVRAFSTDAMKRLMTASWPGNVRQLVNVIEQCVALTSSPVISDALVEQALEGENTALPTFVEARNQFELNYLRKLLQITKGNVTHAARMAGRNRTEFYKLLSRHELDANDFKE [P0AFU4]	4.73 ± 0.42 h	4.48 ± 0.2 h	5 ± 0.17 h	4.45 ± 0.29 h	3.25 ± 0.19 h	5.86 ± 0.38 h	11 ± 2.4 h	4.26 ± 0.069 h	7.72 ± 0.09 h	5.4 ± 0.19 h	12 ± 0.29 h	6.81 ± 1.7 h
MSDSNSRLVYSTETGRIDEPKAAPVRPKGDGVVRIQRQTSGRKGKGVCLITGVDLDDAELTKLAAELKKKCGCGGAVKDGVIEIQGDKRDLLKSLLEAKGMKVKLAGG	4.16 h	3.29 ± 0.22 h	4.11 ± 0.81 h	3.04 ± 0.3 h	2.76 ± 0.65 h	4.11 ± 0.38 h	5.29 ± 0.51 h	3.15 h	5.059 ± 0.042 h	3.05 h	5.7 ± 0.6 h	5.12 ± 0.14 h
MLYKGDTLYLDWLEDGIAELVFDAPGSVNKLDTATVASLGEAIGVLEQQSDLKGLLLRSNKAAFIVGADITEFLSLFLVPEEQLSQWLHFANSVFNRLEDLPVPTIAAVNGYALGGGCECVLATDYRLATPDLRIGLPETKLGIMPGFGGSVRMPRMLGADSALEIIAAGKDVGADQALKIGLVDGVVKAEKLVEGAKAVLRQAINGDLDWKAKRQPKLEPLKLSKIEATMSFTIAKGMVAQTAGKHYPAPITAVKTIEAAARFGREEALNLENKSFVPLAHTNEARALVGIFLNDQYVKGKAKKLTKDVETPKQAAVLGAGIMGGGIAYQSAWKGVPVVMKDINDKSLTLGMTEAAKLLNKQLERGKIDGLKLAGVISTIHPTLDYAGFDRVDIVVEAVVENPKVKKAVLAETEQKVRQDTVLASNTSTIPISELANALERPENFCGMHFFNPVHRMPLVEIIRGEKSSDETIAKVVAWASKMGKTPIVVNDCPGFFVNRVLFPYFAGFSQLLRDGADFRKIDKVMEKQFGWPMGPAYLLDVVGIDTAHHAQAVMAAGFPQRMQKDYRDAIDALFDANRFGQKNGLGFWRYKEDSKGKPKKEEDAAVEDLLAEVSQPKRDFSEEEIIARMMIPMVNEVVRCLEEGIIATPAEADMALVYGLGFPPFHGGAFRWLDTLGSAKYLDMAQQYQHLGPLYEVPEGLRNKARHNEPYYPPVEPARPVGDLKTA	3.24 ± 0.056 h	3.02 ± 0.12 h	3.8 ± 0.82 h	3.27 ± 0.31 h	2.93 ± 0.14 h	4.89 ± 0.061 h	8.047 ± 0.056 h	3.34 ± 0.46 h	4.71 ± 0.23 h	5.3 ± 0.11 h	9.82 ± 0.77 h	4.12 ± 0.27 h
MKPARVPQTVVAPDCWGDLPWGKLYRKALERQLNPWFTKMYGFHLLKIGNLSAEINCEACAVSHQVNVSAQGMPVQVQADPLHLPFADKSVDVCLLAHTLPWCTDPHRLLREADRVLIDDGWLVISGFNPISFMGLRKLVPVLRKTSPYNSRMFTLMRQLDWLSLLNFEVLHASRFHVLPWNKHGGKLLNAHIPALGCLQLIVARKRTIPLTLNPMKQSKNKPRIRQAVGATRQCRKPQA	–	5.49 ± 0.6 h	5.76 ± 1 h	7.25 ± 1 h	1.91 ± 0.15 h	4.59 ± 1.2 h	11.5 h	6.41 h	9.9 ± 3.1 h	5.31 ± 1.1 h	10.6 ± 2.4 h	5.49 ± 0.13 h
MKKFSGIIPPVSSTFHRDGTLDKKAMREVADFLINKGVDGLFYLGTGGEFSQMNTAQRMALAEEAVTIVDGRVPVLIGVGSPSTDEAVKLAQHAQAYGADGIVAINPYYWKVAPRNLDDYYQQIARSVTLPVILYNFPDLTGQDLTPETVTRLALQNENIVGIKDTIDSVGHLRTMINTVKSVRPSFSVFCGYDDHLLNTMLLGGDGAITASANFAPELSVGIYRAWREGDLATAATLNKKLLQLPAIYALETPFVSLIKYSMQCVGLPVETYCLPPILEASEEAKDKVHVLLTAQGILPV	2.73 ± 0.14 h	–	–	3.17 ± 1.4 h	2.83 ± 0.1 h	4.76 ± 0.24 h	9.39 ± 0.15 h	3.68 h	–	–	11.11 ± 0.052 h	4.88 ± 0.66 h
